{
  "source": "paper PMC10027685",
  "about": "“Frozen fresh blood plasma preserves the functionality of native human α2-macroglobulin” (Scientific Reports, 2023)",
  "molecular_target": "the molecule itself",
  "assay": "SEC-MALS; Superose 6 10/300 Increase column, buffer C (20 mM Tris–HCl, 150 mM sodium chloride, pH 7.4), 25 °C; native and MA-treated hα2M from FR and NF plasma",
  "data": [
    {"protein": "native human α2-macroglobulin (natural protein, UniProt P01023 24-1474, looked up, β-cysteinyl-γ-glutamyl thioester bond C972–Q975; glycosylated, human α2-macroglobulin, secreted glycosylated 1451-residue protein; homotetramer, a dimer of disulfide-linked dimers; Authentic protein from the plasma of anonymous healthy donors; also called hα2M; native hα2M) SVSGKPQYMVLVPSLLHTETTEKGCVLLSYLNETVTVSASLESVRGNRSLFTDLEAENDVLHCVAFAVPKSSSNEEVMFLTVQVKGPTQEFKKRTTVMVKNEDSLVFVQTDKSIYKPGQTVKFRVVSMDENFHPLNELIPLVYIQDPKGNRIAQWQSFQLEGGLKQFSFPLSSEPFQGSYKVVVQKKSGGRTEHPFTVEEFVLPKFEVQVTVPKIITILEEEMNVSVCGLYTYGKPVPGHVTVSICRKYSDASDCHGEDSQAFCEKFSGQLNSHGCFYQQVKTKVFQLKRKEYEMKLHTEAQIQEEGTVVELTGRQSSEITRTITKLSFVKVDSHFRQGIPFFGQVRLVDGKGVPIPNKVIFIRGNEANYYSNATTDEHGLVQFSINTTNVMGTSLTVRVNYKDRSPCYGYQWVSEEHEEAHHTAYLVFSPSKSFVHLEPMSHELPCGHTQTVQAHYILNGGTLLGLKKLSFYYLIMAKGGIVRTGTHGLLVKQEDMKGHFSISIPVKSDIAPVARLLIYAVLPTGDVIGDSAKYDVENCLANKVDLSFSPSQSLPASHAHLRVTAAPQSVCALRAVDQSVLLMKPDAELSASSVYNLLPEKDLTGFPGPLNDQDNEDCINRHNVYINGITYTPVSSTNEKDMYSFLEDMGLKAFTNSKIRKPKMCPQLQQYEMHGPEGLRVGFYESDVMGRGHARLVHVEEPHTETVRKYFPETWIWDLVVVNSAGVAEVGVTVPDTITEWKAGAFCLSEDAGLGISSTASLRAFQPFFVELTMPYSVIRGEAFTLKATVLNYLPKCIRVSVQLEASPAFLAVPVEKEQAPHCICANGRQTVSWAVTPKSLGNVNFTVSAEALESQELCGTEVPSVPEHGRKDTVIKPLLVEPEGLEKETTFNSLLCPSGGEVSEELSLKLPPNVVEESARASVSVLGDILGSAMQNTQNLLQMPYGCGEQNMVLFAPNIYVLDYLNETQQLTPEIKSKAIGYLNTGYQRQLNYKHYDGSYSTFGERYGRNQGNTWLTAFVLKTFAQARAYIFIDEAHITQALIWLSQRQKDNGCFRSSGSLLNNAIKGGVEDEVTLSAYITIALLEIPLTVTHPVVRNALFCLESAWKTAQEGDHGSHVYTKALLAYAFALAGNQDKRKEVLKSLNEEAVKKDNSVHWERPQKPKAPVGHFYEPQAPSAEVEMTSYVLLAYLTAQPAPTSEDLTSATNIVKWITKQQNAQGGFSSTQDTVVALHALSKYGAATFTRTGKAAQVTIQSSGTFSSKFQVDNNNRLLLQQVSLPELPGEYSMKVTGEGCVYLQTSLKYNILPEKEEFPFALGVQTLPQTCDEPKAHTSFQISLSVSYTGSRSASNMAIVDVKMVSGFIPLKPTVKMLERSNHVSRTEVSSNHVLIYLDKVSNQTLSLFFTVLQDVPVRDLKPAIVKVYDYYETDEFAIAEYNAPCSKDLGNA", "values": [
      {"measurement": "stoichiometry N", "result": 4}
    ]}
  ]
}
